Data as given in patent publication US20170298096A1 (CANIMGUIDE THERAPEUTICS, published 2017).

T1: His-tagged P3028 peptide (PGE73) (human)
T1 construct: albumin-derived peptide, in solution at 0.5 ug/mL; not shown: His-tag
T1 peptide: VFDEFKPLVEEPQNLIK

T2: His-tagged P3028 peptide (PGE73) (human)
T2 construct: also called His-tag-P3028; not shown: His-tag
T2 peptide: VFDEFKPLVEEPQNLIK


Target: T1, His-tagged P3028 peptide (PGE73)
Assay: PEPSCAN ELISA, peptide on card
Method: (§1) After washing, the peroxidase substrate 2,2′-azine-di-3-ethylbenzthiazoline sulfonate (ABTS) and 2 μL of 3% H2O2 were added. The binding capacity of the mAb was measured as a color development at 405 nm (optical density, OD405). The color development was quantified with a charge-coupled device (CCD)—camera and an image processing system.
(§2) The OD405-values obtained by a CCD-camera was considered as raw data values (“rampo values,” “rampo units,” or “rampo scores”). […] First the CCD-camera made a picture of the card before peroxidase coloring and then again a picture after the peroxidase coloring. […] These values were copied into an excel file and labeled as a raw data file. One follow-up manipulation was allowed. Sometimes a well can contain an air-bubble resulting in a false-positive value. If manual inspection of the cards detect an air-bubble the value are set to 0 for that well.

Row | Binder | RAMPO Score
1 | KKLDTFFVKLSLRTER [SEQ ID NO: 371 KKLDTFFVKLSLRTER] | 502
2 | KKLDTFFVKLSLFTEK [SEQ ID NO: 389 KKLDTFFVKLSLFTEK] | 291
3 | KKLDTFFVKLSLFTDR [SEQ ID NO: 387 KKLDTFFVKLSLFTDR] | 404
4 | KKLDTFFVKLSLFPER [SEQ ID NO: 383 KKLDTFFVKLSLFPER] | 551
5 | KKLDTFFVKLSLFGER [SEQ ID NO: 377 KKLDTFFVKLSLFGER] | 343
6 | KKLDTFFVKLSLFTET [SEQ ID NO: 392 KKLDTFFVKLSLFTET] | 292
7 | KKLDTFFVKLSLFLER [SEQ ID NO: 380 KKLDTFFVKLSLFLER] | 360
8 | KKLDTFFVKLSLFMER [SEQ ID NO: 381 KKLDTFFVKLSLFMER] | 501
9 | KKLDTFFVKLSLVTER [SEQ ID NO: 374 KKLDTFFVKLSLVTER] | 446
10 | KKLDTFFVKLSLFIER [SEQ ID NO: 379 KKLDTFFVKLSLFIER] | 375
11 | KKLDTFFVKLSLFNER [SEQ ID NO: 382 KKLDTFFVKLSLFNER] | 599

Next, values leading:

Row | RAMPO Score | Binder
12 | 494 | KKLDTFFVKLSLTTER [SEQ ID NO: 373 KKLDTFFVKLSLTTER]
13 | 380 | KKLDTFFVKLSLFVER [SEQ ID NO: 385 KKLDTFFVKLSLFVER]
14 | 311 | KKLDTFFVKLSLFTEN [SEQ ID NO: 390 KKLDTFFVKLSLFTEN]
15 | 635 | KKLDTFFVKLSLSTER [SEQ ID NO: 372 KKLDTFFVKLSLSTER]
16 | 369 | KKLDTFFVKLSLFSER [SEQ ID NO: 384 KKLDTFFVKLSLFSER]
17 | 430 | KKLDTFFVKLSLWTER [SEQ ID NO: 375 KKLDTFFVKLSLWTER]
18 | 311 | KKLDTFFVKLSLFTEY [SEQ ID NO: 393 KKLDTFFVKLSLFTEY]
19 | 374 | KKLDTFFVKLSLFWER [SEQ ID NO: 386 KKLDTFFVKLSLFWER]
20 | 297 | KKLDTFFVKLSLFTEF [SEQ ID NO: 388 KKLDTFFVKLSLFTEF]
21 | 463 | KKLDTFFVKLSLFHER [SEQ ID NO: 378 KKLDTFFVKLSLFHER]
22 | 348 | KKLDTFFVKLSLFFER [SEQ ID NO: 376 KKLDTFFVKLSLFFER]

Target: T2, His-tagged P3028 peptide (PGE73)
Assay: PEPSCAN ELISA; peptide on card, His-tagged P3028 in solution;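 note: bound protein detected by peroxidase colour with ABTS substrate, imaged on the peptide card by CCD camera at 405 nm, rampo units being raw OD405 readings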
Method: as §1, §2

Row | Binder | RAMPO Score
23 | KKLDTFFVYLSLFTER (P28R variant on PEPSCAN card) [SEQ ID NO: 552] | 198 rampo units
24 | KKLDTFFVGLSLFTER (P28R variant on PEPSCAN card) [SEQ ID NO: 98] | 188 rampo units
25 | KKLDTFFVDLSLFTER (P28R variant on PEPSCAN card) [SEQ ID NO: 569] | 149 rampo units
26 | KKLDTFFVFLSLFTER (P28R variant on PEPSCAN card) [SEQ ID NO: 560] | 174 rampo units
27 | KKLDTFFVALSLFTER (P28R variant on PEPSCAN card) [SEQ ID NO: 554] | 191 rampo units
28 | KKLDTFFWKLSLFTER (P28R variant on PEPSCAN card) [SEQ ID NO: 537] | 228 rampo units
29 | KKLDTFFHKLSLFTER (P28R variant on PEPSCAN card) [SEQ ID NO: 547] | 213 rampo units
30 | KKLDTFFEKLSLFTER (P28R variant on PEPSCAN card) [SEQ ID NO: 570] | 139 rampo units
31 | KKLDTFFDKLSLFTER (P28R variant on PEPSCAN card) [SEQ ID NO: 574] | 122 rampo units
32 | KKLDTFFVKLSLFDER (P28R variant on PEPSCAN card) [SEQ ID NO: 567] | 159 rampo units
33 | KKLDTFFVKLSLFTEP (P28R variant on PEPSCAN card) [SEQ ID NO: 533] | 234 rampo units
34 | KKLDTFFVKLSLFTES (P28R variant on PEPSCAN card) [SEQ ID NO: 557] | 184 rampo units
35 | KKLDTFFVKLSLFTEI (P28R variant on PEPSCAN card) [SEQ ID NO: 558] | 176 rampo units
36 | KKLDTFFVKLSLFTEQ (P28R variant on PEPSCAN card) [SEQ ID NO: 573] | 133 rampo units
37 | KKLDTFFVKLSLFTEW (P28R variant on PEPSCAN card) [SEQ ID NO: 551] | 202 rampo units
38 | KKLDTFFVKLSLFTEL (P28R variant on PEPSCAN card) [SEQ ID NO: 544] | 217 rampo units
39 | KKLDTFFVKLSLFTEE (P28R variant on PEPSCAN card) [SEQ ID NO: 577] | 107 rampo units
40 | KKLDTFFVKLSLFTED (P28R variant on PEPSCAN card) [SEQ ID NO: 572] | 133 rampo units
41 | KKLDTFFVKLSLFTFR (P28R variant on PEPSCAN card) [SEQ ID NO: 571] | 137 rampo units
42 | KKLDTFFVKLSLFTIR (P28R variant on PEPSCAN card) [SEQ ID NO: 564] | 163 rampo units
43 | KKLDTFFVKLSLFTWR (P28R variant on PEPSCAN card) [SEQ ID NO: 539] | 226 rampo units
44 | KKLDTFFVKLSLFTTR (P28R variant on PEPSCAN card) [SEQ ID NO: 568] | 152 rampo units
45 | KKLDTFFVKLSLFTGR (P28R variant on PEPSCAN card) [SEQ ID NO: 101] | 233 rampo units
46 | KKLDTFFVKLLLFTER (P28R variant on PEPSCAN card) [SEQ ID NO: 548] | 213 rampo units
47 | KKLDTEFVKLSLFTER (P28R variant on PEPSCAN card) [SEQ ID NO: 536] | 229 rampo units

The next lines start with the values.

Row | RAMPO Score | Binder
48 | 232 rampo units | KKLDTFKVKLSLFTER (P28R variant on PEPSCAN card) [SEQ ID NO: 535]
49 | 220 rampo units | KKLDTFFVCLSLFTER (P28R variant on PEPSCAN card) [SEQ ID NO: 541]
50 | 190 rampo units | KKLDTFFVILSLFTER (P28R variant on PEPSCAN card) [SEQ ID NO: 555]
51 | 166 rampo units | KKLDTFFVLLSLFTER (P28R variant on PEPSCAN card) [SEQ ID NO: 562]
52 | 188 rampo units | KKLDTFFVGLSLFTER (P28R variant on PEPSCAN card) [SEQ ID NO: 97]
53 | 233 rampo units | KKLDTFFVPLSLFTER (P28R variant on PEPSCAN card) [SEQ ID NO: 534]
54 | 220 rampo units | KKLDTFFVKLSLKTER (P28R variant on PEPSCAN card) [SEQ ID NO: 542]
55 | 98 rampo units | KKLDTFFVKLSLETER (P28R variant on PEPSCAN card) [SEQ ID NO: 579]
56 | 112 rampo units | KKLDTFFVKLSLDTER (P28R variant on PEPSCAN card) [SEQ ID NO: 575]
57 | 221 rampo units | KKLDTFFMKLSLFTER (P28R variant on PEPSCAN card) [SEQ ID NO: 540]
58 | 203 rampo units | KKLDTFFNKLSLFTER (P28R variant on PEPSCAN card) [SEQ ID NO: 550]
59 | 211 rampo units | KKLDTFFYKLSLFTER (P28R variant on PEPSCAN card) [SEQ ID NO: 549]
60 | 216 rampo units | KKLDTFFSKLSLFTER (P28R variant on PEPSCAN card) [SEQ ID NO: 545]
61 | 226 rampo units | KKLDTFFVKLSLFTEA (P28R variant on PEPSCAN card) [SEQ ID NO: 538]
62 | 218 rampo units | KKLDTFFVKLSLFTEG (P28R variant on PEPSCAN card) [SEQ ID NO: 543]
63 | 175 rampo units | KKLDTFFVKLSLFTEC (P28R variant on PEPSCAN card) [SEQ ID NO: 559]
64 | 161 rampo units | KKLDTFFVKLSLFTNR (P28R variant on PEPSCAN card) [SEQ ID NO: 566]
65 | 163 rampo units | KKLDTFFVKLSLFTVR (P28R variant on PEPSCAN card) [SEQ ID NO: 565]
66 | 185 rampo units | KKLDTFFVKLSLFTCR (P28R variant on PEPSCAN card) [SEQ ID NO: 556]
67 | 174 rampo units | KKLDTFFVKLSLFTAR (P28R variant on PEPSCAN card) [SEQ ID NO: 561]
68 | 165 rampo units | KKLDTFFVKLSLFTSR (P28R variant on PEPSCAN card) [SEQ ID NO: 563]
69 | 193 rampo units | KKLDTDFVKLSLFTER (P28R variant on PEPSCAN card) [SEQ ID NO: 553]
70 | 215 rampo units | CKLDTFFVKLSLFTER (P28R variant on PEPSCAN card) [SEQ ID NO: 546]
